The values below come from patent publication US20050227296A1, “Method for indentifying integrin antagonists” (The General Hospital Corporation, a Massachusetts …, priority 1988, published 2005).

The target of the assay is T1, biotinylated NIF binding to immobilized r11bA (Homo sapiens, UniProt P11215).
T1 construct: recombinant CD11b A domain (rCD11bA) and recombinant CD11a A domain (r11aA) were expressed as GST fusion proteins; GST (N); made in house; host or cells: Escherichia coli
Put plainly: Inhibition of biotinylated NIF binding to immobilized r11bA. The procedure: Immobilization of Recombinant Proteins and Polypeptide: Purified rA-domain preparations (1 μg/well), soluble CD54, human fibrinogen (Sigma Chemical Co., St. Loius, Mo.), gelatin (BioRad-Laboratories) or BSA (Calbiochem-Behring Corp.) (each at 10 μg/well) or selected A-domain-derived peptides (10 μg) were added to Immulon-2 96-well microtiter plates (Dynatech Labs, Chantilly, Va.) overnight. Quantitation of adsorbed wild-type and mutant A-domain and synthetic peptides was done using the mAb 44 in an ELISA, and the BCA kit (from Pierce Chemical Co., Rockford, Ill.), respectively. […]
Biotinylation of recombinant NIP and Measurement of Binding to Immobilized Peptides: Recombinant NIP was labeled with sulfo-NHS-biotin as described by the manufacturer (Pierce Chemical Co.). […] Wells were then washed, incubated with alkaline phosphatase-coupled avidin, washed again, developed with substrate and quantified colormetrically using a microplate reader. […] In experiments where the effects of divalent cations on biotinylated rNIF binding to immobilized rCD11b A-domain were measured, VBSG^−− buffer (veronal-buffered saline, pH=7.4, containing 0.1% gelatin) containing 1 mM of Ca^2+, Mg^2+, Mn^2+, EDTA, EGTA, EGTA plus 1 mM MgCl2, or 1 mM MnCl2. […]

T1 sequence (P11215 150-328 limits assumed): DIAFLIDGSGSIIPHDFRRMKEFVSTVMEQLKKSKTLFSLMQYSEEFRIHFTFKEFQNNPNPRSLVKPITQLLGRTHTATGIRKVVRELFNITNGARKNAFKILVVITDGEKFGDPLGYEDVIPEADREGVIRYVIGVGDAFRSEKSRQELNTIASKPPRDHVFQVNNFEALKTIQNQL

As for “r11bA: recombinant human CD11b A domain (Cys128 to Glu321), expressed as GST fusion protein, used as such or after thrombin cleavage”, the “effect of fluid-phase protein on biotinylated rNIF binding to immobilized r11bA” value (dose dependent) is on record as “abolished”. In addition, for the setting “fluid-phase protein, read-out: half-maximal inhibition of biotinylated rNIF binding to immobilized r11bA”, the IC50 was around 1 nM.
